Experimental data reported in patent US20250011363A1, “OPTIMIZED SHORTENED PEPTIDE THAT BINDS TO ACETYLCHOLINE RECEPTOR, AND USE THEREOF” (SKINMED CO., LTD., priority 2021, published 2025).

These binders were tested against acetylcholine receptor (assay: SPR, AchR immobilised, peptide 10 uM).

Binding affinity (RU) | Binder
18 | KKTSER [6mer-1-615]
17 | RRCTVR [6mer-1-657]
24 | KKYNGK [6mer-1-642]
27 | KKHHER [6mer-1-610]
27 | RKYKDR [6mer-1-636]
23 | KRMNDR [6mer-1-654]
14 | RKPKWR [6mer-1-661]
32 | RRIAGK [6mer-1-649]
19 | RKCHVK [6mer-1-618]
31 | KRHNVR [6mer-1-617]
20 | KKESHR [6mer-1-638]
30 | RRMAGK [6mer-1-621]
23 | KKIDKR [6mer-1-619]
31 | RKTWFR [6mer-1-644]
26 | KKFKDR [6mer-1-663]
20 | RKNADR [6mer-1-605]
17 | RKDTAR [6mer-1-632]
11 | RKMDAK [6mer-1-629]
36 | KKCTPR [6mer-1-1072]
29 | KKPSKR [6mer-1-659]
27 | RKYMWK [6mer-1-1073]
33 | RRTTIR [6mer-1-645]
24 | KRPNVR [6mer-1-639]
24 | KKFTKK [6mer-1-604]
21 | KKCDGK [6mer-1-665]

Binding affinity (RU) | Binder
17 | KKFWEK [6mer-1-648]
21 | RREMFK [6mer-1-641]
18 | KKACMR [6mer-1-608]
14 | KRIMKK [6mer-1-613]
31 | KKNTIK [6mer-1-616]
29 | RRTWWR [6mer-1-627]
25 | RRNCWR [6mer-1-640]
12 | KKNTMR [6mer-1-634]
15 | RREWFR [6mer-1-606]
27 | KKEWNK [6mer-1-601]
24 | KKTCDK [6mer-1-1070]
17 | KRIMER [6mer-1-612]
26 | KRDHIK [6mer-1-664]
31 | KRYHIR [6mer-1-1068]
20 | KKMTER [6mer-1-662]
22 | KKDHFR [6mer-1-607]
26 | RRPEVK [6mer-1-652]
23 | RRENEK [6mer-1-628]
23 | RKEDVK [6mer-1-1066]
20 | RKKEMK [6mer-1-658]
38 | RRKHWK [6mer-1-1067]
33 | KREDKK [6mer-1-625]
33 | RRCTGK [6mer-1-646]
30 | KKPPAK [6mer-1-624]
31 | KKYHVK [6mer-1-660]

Binding affinity (RU) | Binder
18 | RKAEKR [6mer-1-602]
23 | KKIWAR [6mer-1-1069]
23 | KKNCHK [6mer-1-611]
15 | KRMTHR [6mer-1-653]
12 | RKNMFR [6mer-1-655]
23 | KRDKAK [6mer-1-1065]
16 | RKIDAK [6mer-1-633]
11 | RRKTAK [6mer-1-620]
13 | KRPHFK [6mer-1-603]
24 | RKNPVR [6mer-1-609]
27 | KRPDNR [6mer-1-626]
33 | RRFEFK [6mer-1-637]
27 | KRICWK [6mer-1-651]
14 | RKYNVR [6mer-1-647]
18 | KKCPNR [6mer-1-622]
21 | RRTDWR [6mer-1-623]
13 | RRYSDR [6mer-1-631]
12 | KKEEER [6mer-1-614]
28 | RRPTHK [6mer-1-656]
38 | RKTKAK [6mer-1-1071]
31 | KRYSMR [6mer-1-643]
14 | KRMEPR [6mer-1-630]
33 | KKTTWK [6mer-1-635]
18 | RRCNNR [6mer-1-650]

These binders were tested against acetylcholine receptor (assay: SPR, AchR immobilized on CM5 chip, peptide 10 uM).

Binding affinity (RU) | Binder
12 | KKCHMR [6mer-1-795]
28 | RRHAFK [6mer-1-796]
22 | RRAWNK [6mer-1-797]
18 | RRDCFR [6mer-1-798]
